# Article PMC6523629
# Molecular target: tropomyosin receptors kinase A (TrkA) (rat (endogenous in PC12)) (UniProt P35739)
# Sequence of UniProt P35739 (P35739 33-799): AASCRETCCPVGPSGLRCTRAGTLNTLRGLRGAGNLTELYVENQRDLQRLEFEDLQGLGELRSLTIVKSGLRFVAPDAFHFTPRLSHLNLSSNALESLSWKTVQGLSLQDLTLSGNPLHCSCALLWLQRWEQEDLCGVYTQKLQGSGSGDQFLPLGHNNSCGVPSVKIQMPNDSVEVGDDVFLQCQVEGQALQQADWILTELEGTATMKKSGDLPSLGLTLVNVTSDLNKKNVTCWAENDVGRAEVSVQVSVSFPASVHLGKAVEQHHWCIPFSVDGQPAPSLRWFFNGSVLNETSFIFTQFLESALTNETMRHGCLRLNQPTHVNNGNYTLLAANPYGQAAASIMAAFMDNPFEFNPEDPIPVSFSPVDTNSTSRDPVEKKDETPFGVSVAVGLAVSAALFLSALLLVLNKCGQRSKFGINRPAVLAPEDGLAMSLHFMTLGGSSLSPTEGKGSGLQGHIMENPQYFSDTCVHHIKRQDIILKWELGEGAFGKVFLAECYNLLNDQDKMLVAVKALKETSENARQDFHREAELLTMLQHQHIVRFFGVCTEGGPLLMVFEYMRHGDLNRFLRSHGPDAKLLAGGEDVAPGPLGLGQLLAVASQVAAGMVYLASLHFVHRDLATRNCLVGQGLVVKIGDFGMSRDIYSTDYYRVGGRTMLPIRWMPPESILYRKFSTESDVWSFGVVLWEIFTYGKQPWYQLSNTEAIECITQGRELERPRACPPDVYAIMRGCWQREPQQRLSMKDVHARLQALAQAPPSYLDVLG
substance,measurement,value
NGF(1-14) (peptide),"phosphorylation of TrkA (Tyr-490), Western blot, PC12 cells, 50 uM peptide with 1 uM CuSO4, 10 min, % of the untreated control",825%
same,"phosphorylation of TrkA (Tyr-490), Western blot, PC12 cells, 50 uM peptide, 10 min, % of the untreated control",540%
d-NGF(1-15) (peptide),"phosphorylation of TrkA (Tyr-490), Western blot, PC12 cells, 50 uM peptide with 1 uM CuSO4, 10 min, % of the untreated control",1020%
same,"phosphorylation of TrkA (Tyr-490), Western blot, PC12 cells, 50 uM peptide, 10 min, % of the untreated control",653%
